B1: α-Cobratoxin from cobra Naja kaouthia venom (natural protein)
chain: IRCFITPDITSKDCPNGHVCYTKTWCDAFCSIRGKRVDLGCAATCPTVKTGVDIQCCSTDNCNPFPTRKRP

What was measured:
[1] = molecular target: Acetylcholine binding protein from Aplysia californica (Aplysia californica); assay: radioligand binding
[2] = molecular target: T1, Acetylcholine binding protein from Lymnaea stagnalis (Lymnaea stagnalis, UniProt P58154 20-229); assay: radioligand binding; conditions: both partners purified
T1 construct: also called AChBP L. stagnalis; L. stagnalis AChBP

Row | Molecule | IC50 [1] | IC50 [2]
1 | α-Cobratoxin from cobra Naja kaouthia venom (from UniProt P01391 1-71) (natural protein) | 385 nM | –
2 | B1 | – | 25.4 ± 0.8 nM

From article PMC7924340 (Toxins, 2021)
